Experimental data from PMC9482650, “Quantitative fragmentomics allow affinity mapping of interactomes” (Nature Communications, 2022).

B1: TNRC6B, Q9UPQ9 (peptide)
chain: DLLGGGSDSI
B2: TMEM178A, Q8NBL3 (peptide)
chain: QLKSGRDSTV
B3: ADRA1D, P25100 (peptide)
chain: DYSNLRETDI

Experiments:
Assay in all cases: holdup assay
Set-up in all cases: key: below the threshold = too weak to quantify, mostly under pKd 3.1 to 4
Details in all cases: plain residues with an end cap or a label only (N-terminal biotin on a linker: ado-ado)
[1] = target: FRMPD2_2, Q68DX3
FRMPD2_2, Q68DX3, sequence (Q68DX3 944-1038): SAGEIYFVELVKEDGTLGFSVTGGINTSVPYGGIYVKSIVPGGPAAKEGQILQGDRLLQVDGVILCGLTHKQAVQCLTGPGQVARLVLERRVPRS

[2] = target: PDLIM1, O00151
PDLIM1, O00151, sequence (O00151 1-87): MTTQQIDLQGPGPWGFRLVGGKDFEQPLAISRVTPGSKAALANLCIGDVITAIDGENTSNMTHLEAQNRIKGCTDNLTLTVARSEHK

[3] = target: T1, LIN7C, Q9NUP9
T1 sequence (Q9NUP9 88-185, limits assumed, looked up): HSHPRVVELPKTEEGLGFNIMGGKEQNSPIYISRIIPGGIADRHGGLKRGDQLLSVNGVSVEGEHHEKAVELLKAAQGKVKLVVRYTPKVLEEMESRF

[4] = target: Inadl_4, Q8NI35
Inadl_4, Q8NI35, sequence (Q8NI35 547-651): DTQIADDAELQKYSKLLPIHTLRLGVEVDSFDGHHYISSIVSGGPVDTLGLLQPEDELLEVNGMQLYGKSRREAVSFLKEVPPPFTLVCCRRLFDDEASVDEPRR

[5] = target: T2, ARHGAP21, Q5T5U3
T2 sequence (Q5T5U3 45-169, limits assumed, looked up): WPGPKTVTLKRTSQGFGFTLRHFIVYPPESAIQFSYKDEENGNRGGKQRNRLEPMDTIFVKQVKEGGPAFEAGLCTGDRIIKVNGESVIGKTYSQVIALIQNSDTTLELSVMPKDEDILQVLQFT

[6] = target: T3, SHANK1, Q9Y566
T3 sequence (Q9Y566 658-767, limits assumed, looked up): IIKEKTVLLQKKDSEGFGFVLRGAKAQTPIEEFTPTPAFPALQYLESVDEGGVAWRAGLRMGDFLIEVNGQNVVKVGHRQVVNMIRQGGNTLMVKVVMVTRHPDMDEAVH

[7] = target: MAGI2_4, Q86UL8
MAGI2_4, Q86UL8, sequence (Q86UL8 772-865): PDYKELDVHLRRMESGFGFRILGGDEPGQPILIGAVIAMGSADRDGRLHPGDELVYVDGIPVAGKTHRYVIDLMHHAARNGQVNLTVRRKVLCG

[8] = target: T4, LRRC7, Q96NW7
T4 sequence (Q96NW7 1440-1537, limits assumed, looked up): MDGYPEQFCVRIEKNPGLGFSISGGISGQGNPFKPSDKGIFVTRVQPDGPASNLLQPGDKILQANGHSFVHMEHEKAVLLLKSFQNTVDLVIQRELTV

[9] = target: LDB3, O75112
LDB3, O75112, sequence (O75112 1-94): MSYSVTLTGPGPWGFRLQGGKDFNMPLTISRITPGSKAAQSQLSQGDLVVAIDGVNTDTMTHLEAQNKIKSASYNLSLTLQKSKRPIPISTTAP

[10] = target: FRMPD2_1, Q68DX3
FRMPD2_1, Q68DX3, sequence (Q68DX3 770-861): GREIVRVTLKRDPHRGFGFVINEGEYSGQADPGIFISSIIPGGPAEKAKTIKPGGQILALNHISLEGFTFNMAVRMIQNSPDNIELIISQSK

[11] = target: MAGI2_3, Q86UL8
MAGI2_3, Q86UL8, sequence (Q86UL8 600-682): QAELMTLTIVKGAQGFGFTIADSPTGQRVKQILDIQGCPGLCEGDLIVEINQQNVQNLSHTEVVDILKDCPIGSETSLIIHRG

[12] = target: PARD3_3, Q8TEW0
PARD3_3, Q8TEW0, sequence (Q8TEW0 582-685): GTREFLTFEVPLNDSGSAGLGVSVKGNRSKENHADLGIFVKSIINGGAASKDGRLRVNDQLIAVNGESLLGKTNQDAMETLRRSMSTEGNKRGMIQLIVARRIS

[13] = target: T5, ARHGEF11, O15085
T5 sequence (O15085 42-136, limits assumed, looked up): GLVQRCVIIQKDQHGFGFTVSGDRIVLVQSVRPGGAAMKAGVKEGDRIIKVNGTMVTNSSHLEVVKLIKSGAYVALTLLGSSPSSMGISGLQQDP

[14] = target: Inadl_8, Q8NI35
Inadl_8, Q8NI35, sequence (Q8NI35 1425-1530): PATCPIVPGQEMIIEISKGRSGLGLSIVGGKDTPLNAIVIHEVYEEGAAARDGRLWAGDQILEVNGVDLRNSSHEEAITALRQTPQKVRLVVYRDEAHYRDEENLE

[15] = target: DLG4_1, P78352
DLG4_1, P78352, sequence (P78352 62-152): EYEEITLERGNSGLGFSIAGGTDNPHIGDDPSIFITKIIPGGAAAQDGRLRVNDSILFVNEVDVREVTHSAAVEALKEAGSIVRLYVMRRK

[16] = target: GRID2IP_1, A4D2P6
GRID2IP_1, A4D2P6, sequence (A4D2P6 1-87): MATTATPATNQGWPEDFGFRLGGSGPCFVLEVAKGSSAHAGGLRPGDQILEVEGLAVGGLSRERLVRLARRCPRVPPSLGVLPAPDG

[17] = target: DLG2_3, Q15700
[18] = target: NHERF4_2, Q86UT5
NHERF4_2, Q86UT5, sequence (Q86UT5 220-308): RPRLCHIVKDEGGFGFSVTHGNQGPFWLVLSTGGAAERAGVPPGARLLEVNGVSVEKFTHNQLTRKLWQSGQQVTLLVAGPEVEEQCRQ

[19] = target: T6, LNX2_3, Q8N448
T6 sequence (Q8N448 463-564, limits assumed, looked up): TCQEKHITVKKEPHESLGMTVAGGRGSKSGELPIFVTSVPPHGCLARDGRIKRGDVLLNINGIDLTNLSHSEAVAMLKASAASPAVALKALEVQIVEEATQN

[20] = target: T7, RAPGEF6, Q8TEU7
T7 sequence (Q8TEU7 525-625, limits assumed, looked up): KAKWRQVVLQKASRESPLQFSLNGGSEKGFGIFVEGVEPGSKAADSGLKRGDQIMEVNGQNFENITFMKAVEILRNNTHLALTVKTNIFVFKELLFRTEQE

[21] = target: T8, TJP3_3, O95049
T8 sequence (O95049 375-456, limits assumed, looked up): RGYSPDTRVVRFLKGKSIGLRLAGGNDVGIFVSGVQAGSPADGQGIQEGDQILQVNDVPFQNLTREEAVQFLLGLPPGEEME

[22] = target: T9, APBA1_2, Q02410
T9 sequence (Q02410 742-832, limits assumed, looked up): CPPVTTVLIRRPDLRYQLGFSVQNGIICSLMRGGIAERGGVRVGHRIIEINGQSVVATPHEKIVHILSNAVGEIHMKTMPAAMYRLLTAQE

[23] = target: MAGI3_2, Q5TCQ9
MAGI3_2, Q5TCQ9, sequence (Q5TCQ9 398-503): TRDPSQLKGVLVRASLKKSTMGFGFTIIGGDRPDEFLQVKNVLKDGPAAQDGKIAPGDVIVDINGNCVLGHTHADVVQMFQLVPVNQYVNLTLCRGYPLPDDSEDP

[24] = target: NHERF4_1, Q86UT5-2
NHERF4_1, Q86UT5-2, sequence (Q86UT5 other isoform, or with tags, fused parts or gaps): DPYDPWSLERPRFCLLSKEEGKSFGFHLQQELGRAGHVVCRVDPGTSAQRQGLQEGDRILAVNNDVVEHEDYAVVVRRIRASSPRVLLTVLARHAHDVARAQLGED

[25] = target: T10, APBA1_1, Q02410
T10 sequence (Q02410 651-752, limits assumed, looked up): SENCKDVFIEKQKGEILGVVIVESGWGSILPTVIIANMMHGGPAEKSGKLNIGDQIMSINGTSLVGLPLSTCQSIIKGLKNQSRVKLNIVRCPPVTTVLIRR

[26] = target: Inadl_2, Q8NI35
Inadl_2, Q8NI35, sequence (Q8NI35 238-335): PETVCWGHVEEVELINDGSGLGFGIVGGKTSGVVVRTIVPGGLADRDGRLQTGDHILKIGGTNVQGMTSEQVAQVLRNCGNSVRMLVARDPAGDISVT

[27] = target: SCRIB_2, Q14160
SCRIB_2, Q14160, sequence (Q14160 857-960): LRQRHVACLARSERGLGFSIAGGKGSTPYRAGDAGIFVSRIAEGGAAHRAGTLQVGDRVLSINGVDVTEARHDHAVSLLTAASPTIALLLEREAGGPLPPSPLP

[28] = target: PTPN3, P26045
PTPN3, P26045, sequence (P26045 505-587): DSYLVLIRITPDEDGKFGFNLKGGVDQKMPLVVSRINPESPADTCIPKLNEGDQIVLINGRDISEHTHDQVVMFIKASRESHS

Row | Binder | pKd [1] | pKd [2] | pKd [3] | pKd [4] | pKd [5] | pKd [6] | pKd [7] | pKd [8] | pKd [9] | pKd [10] | pKd [11] | pKd [12] | pKd [13] | pKd [14] | pKd [15] | pKd [16] | pKd [17] | pKd [18] | pKd [19] | pKd [20] | also measured
1 | B1 | below the threshold | below the threshold | 3.48 | below the threshold | below the threshold | below the threshold | below the threshold | below the threshold | below the threshold | below the threshold | below the threshold | below the threshold | 3.65 | below the threshold | below the threshold | below the threshold | 3.62 | below the threshold | below the threshold | below the threshold | pKd [21]: below the threshold; pKd [22]: below the threshold; pKd [23]: below the threshold; pKd [24]: 3.63; pKd [25]: below the threshold; pKd [26]: below the threshold; pKd [27]: below the threshold; pKd [28]: below the threshold
2 | B2 | below the threshold | below the threshold | 4.13 | below the threshold | 4 | below the threshold | 3.92 | below the threshold | below the threshold | below the threshold | below the threshold | 3.5 | 4.11 | 3.7 | 4.34 | below the threshold | below the threshold | 3.62 | below the threshold | below the threshold | pKd [21]: 3.5; pKd [22]: 3.63; pKd [23]: 4.12; pKd [24]: below the threshold; pKd [25]: below the threshold; pKd [26]: below the threshold; pKd [27]: 3.69; pKd [28]: 4.4
3 | B3 | below the threshold | below the threshold | 4.05 | below the threshold | 3.98 | below the threshold | below the threshold | 3.48 | below the threshold | below the threshold | below the threshold | 3.51 | below the threshold | 3.56 | 3.89 | below the threshold | below the threshold | below the threshold | below the threshold | below the threshold | pKd [21]: below the threshold; pKd [22]: below the threshold; pKd [23]: below the threshold; pKd [24]: below the threshold; pKd [25]: below the threshold; pKd [26]: below the threshold; pKd [27]: 4.73; pKd [28]: 4.57
